Results taken from IntAct's records for PubMed 23851574.

B1: AP-1 complex subunit gamma-like 2 (Homo sapiens), O75843 (parent)
chain: MVVPSLKLQDLIEEIRGAKTQAQEREVIQKECAHIRASFRDGDPVHRHRQLAKLLYVHMLGYPAHFGQMECLKLIASSRFTDKRVGYLGAMLLLDERHDAHLLITNSIKNDLSQGIQPVQGLALCTLSTMGSAEMCRDLAPEVEKLLLQPSPYVRKKAILTAVHMIRKVPELSSVFLPPCAQLLHERHHGILLGTITLITELCERSPAALRHFRKVVPQLVHILRTLVTMGYSTEHSISGVSDPFLQVQILRLLRILGRNHEESSETMNDLLAQVATNTDTSRNAGNAVLFETVLTIMDIRSAAGLRVLAVNILGRFLLNSDRNIRYVALTSLLRLVQSDHSAVQRHRPTVVECLRETDASLSRRALELSLALVNSSNVRAMMQELQAFLESCPPDLRADCASGILLAAERFAPTKRWHIDTILHVLTTAGTHVRDDAVANLTQLIGGAQELHAYSVRRLYNALAEDISQQPLVQVAAWCIGEYGDLLLAGNCEEIEPLQVDEEEVLALLEKVLQSHMSLPATRGYALTALMKLSTRLCGDNNRIRQVVSIYGSCLDVELQQRAVEYDTLFRKYDHMRAAILEKMPLVERDGPQADEEAKESKEAAQLSEAAPVPTEPQASQLLDLLDLLDGASGDVQHPPHLDPSPGGALVHLLDLPCVPPPPAPIPDLKVFEREGVQLNLSFIRPPENPALLLITITATNFSEGDVTHFICQAAVPKSLQLQLQAPSGNTVPARGGLPITQLFRILNPNKAPLRLKLRLTYDHFHQSVQEIFEVNNLPVESWQ
B2: Large envelope protein (Hepatitis B virus genotype D subtype adw (isolate United Kingdom/adyw/1979)), P03139-1 (parent)
chain: MGQNLSTSNPLGFFPDHQLDPAFRANTNNPDWDFNPNKDTWPDANKVGAGAFGLGFTPPHGGLLGWSPQAQGIMQTLPANPPPASTNRQSGRQPTPLSPPLRTTHPQAMHWNSTTFHQTLQDPRVRGLYFPAGGSSSGTVNPVPTTTSPISSIFSRIGDPALNMENITSGFLGPLLVLQAGFFLLTRILTIPQSLDSWWTSLNFLGGTTVCLGQNSQSPISNHSPTSCPPTCPGYRWMCLRRFIIFLFILLLCLIFLLVLLDYQGMLPVCPLIPGSSTTSTGSCRTCTTPAQGISMYPSCCCTKPSDGNCTCIPIPSSWAFGKFLWEWASARFSWLSLLVPFVQWFVGLSPIVWLSVIWMMWYWGPSLYSILSPFLPLLPIFFCLWAYI
partner: B1 chain

Variants of: B1
Settings: with S

Variant | effect of a mutation on the interaction
A716G | decreasing interaction strength
R756A | decreasing interaction strength
R756Q | decreasing interaction strength
S720A | decreasing interaction strength
R760A | decreasing interaction strength
K719Q | decreasing interaction strength
P754A | decreasing interaction strength

Variants of: B2
Settings: with ap1g2_human AP1G2, O75843

Variant | effect of a mutation on the interaction
F34A | decreasing interaction strength
D31A | decreasing interaction strength
D33A | decreasing interaction strength
W32A | decreasing interaction strength
